Results published in publication PMC11354668.

test system: ChromPure mouse IgG whole molecule (mouse); assay: BLI; details: 5'-biotin (unmodified in SPA competition); BLI (Octet K2), SAX2.0 sensors loaded with 0.5 uM 5'-biotin DNA, IgG 0.0125-0.2 mg/mL, PBST-B, 30 C; pH not …

Substance	Kd
CGCCTAGGTTGGGTAGGGTGGTGGCG [6GN7]	241 nM

same assay, conditions: 5'-biotin; BLI (Octet K2), SAX2.0 sensors loaded with 0.5 uM 5'-biotin DNA, IgG 0.0125-0.2 mg/mL, PBST-B, 30 C; pH not …

Substance	Kd
TTTTTTTTTT [poly-T10]	1490 nM
TTTTTTTTTTTTTTTTTTTTTTTTT [4GNX]	2100 nM
TTTTTTTTTTTTTTTTT [7JSG]	1120 nM
TTTTTTTTTTTTTTTTTTTTTTTTTTTTTT [poly-T30]	1430 nM
GGGGGGGGGGGGGGG [poly-G15]	273 nM
GGGGTTTTGGGGT [1PH1-D]	881 nM
TTTTTTTTTTTT [4JS5]	1730 nM
CAGTGGCTGA [2KN7]	1200 nM
TTTTTTTTTT [4OU6]	947 nM
GGGGGGGGGG [poly-G10]	295 nM
TGGGGTGTGG [2A0I]	872 nM
GCGGCGG [5FGP]	1510 nM
TTTTTTTTTTTTTTTG [2C62]	3240 nM
TTTTTTTTTTTTTTT [poly-T15]	909 nM
TTTTTTTTTTTTTTTT [6SKO]	1070 nM
GGGGTGGGTGGTGGGT [7XHD]	521 nM
TGTACAATGGG [3UGO]	793 nM
TTTTTTTTTTTTTTT [2CCZ]	909 nM
TTTTTTTTTTTTTTTTTTTTTTTTT [poly-T25]	1010 nM
TTTTTTTTTTTTTTTTTTTT [poly-T20]	830 nM
GGGTCGGTGCCTTA [6CRM]	1110 nM
TTTTTTTTTTTTTTTTTTCCCTTTTTTTTTTTTTTTTTTT [5XRZ]	843 nM
GGTTGGTGTGGTTGG [1RDE]	1090 nM
TTTTTTTT [7JSI]	1830 nM
GGGGTTTTGGGG [1OTC]	414 nM
CCCCCCCCCCCCCCC [poly-C15]	1360 nM

target: staphylococcal protein A (UniProt P38507); assay: BLI; Octet K2; SPA biosensor (sensor type: ProA) with mouse IgG; SPA-IgG run as positive control; the IgG concentrations and times of this kinetic run are not described; details: not given

Substance	Kd	koff	kon
ChromPure mouse IgG whole molecule (antibody)	14.9 nM	0.000716 s⁻¹	48000 M⁻¹ s⁻¹
